# System: MS2 coat protein
# Assay: apparent KD of MS2 coat protein; designed switch direction (-1 OFF switch, 1 ON switch): 1; higher = weaker reporter binding
# How it was run: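 The reported apparent KD is a per-design median over clusters, from curve fits of normalised cluster fluorescence. Protein titrations used SNAP-549-labelled MS2 coat protein, doubled from 0.7 or 1.5 nM to 3 µM, in Tris-HCl pH 7.5 buffer with KCl, MgCl2, BSA, DTT, tRNA and Tween-20, with no input, 200 uM small-molecule ligand, or an oligonucleotide input. The RNA switches were transcribed on Illumina chips by stalled E. coli RNA polymerase.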
# [1] = input ligand: microRNA oligo, concentration not stated
Sequence,apparent KD of MS2 coat protein (input ligand: FMN 200 uM) [µM],apparent KD of MS2 coat protein [1] [µM],apparent KD of MS2 coat protein (input ligand: none) [µM],"apparent KD of MS2 coat protein (Eterna round: R95, input ligand: FMN 200 uM) [µM]","apparent KD of MS2 coat protein (Eterna round: R95, input ligand: microRNA oligo, concentration not stated) [µM]","apparent KD of MS2 coat protein (Eterna round: R95, input ligand: none) [µM]"
"GCCGCGUUUCGCGCCUACAUGAGGAUCACCCAUGUUUGUAGGCAGGAUAUCGUUUGCUUUGCAAGCGAGAAGGGCUGUUGUGGC [salish99_SSNG3_R04_015] (Eterna round: R96, puzzle: Same State NG 3)",0.0443,0.0392,0.0507,,,
"GCGAACUGUGUAGGAUAUUGAGCACUUUUGGAGCAAGAAGGACACCAAGUGCUGACUAUACAUGAGGAUCACCCAUGUUCAGCA [Eternabot solution 22] (Eterna round: R96, puzzle: Same State NG 1)",,0.0214,,,,
"GCGAAGAGGUAAGGAUAUUCAUGGCGGAGACAUGAGGAUCACCCAUGUAGGAGACGAAAUCAAAGGGAGAAGGUACCAGGACGC [AK SSNG2-V2-15] (Eterna round: R96, puzzle: Same State NG 2)",0.0822,0.159,0.16,,,
"GCGAGCGUACUUGCAGACAUGAGGAUCACCCAUGUAACUGGACAGGAUAUGGUACCGUUUCGGUACCAGAAGGGUUCAUAUGUC [JL SSNG3 3.53] (Eterna round: R96, puzzle: Same State NG 3)",0.0676,0.0508,0.0794,,,
"GCGAGCGUACUUGCAGACAUGAGGAUCACCCAUGUAACUGGACAGGAUAUGGUACCGUUUCGGUACCAGAAGGGUUUACUCAUG [JL SSNG3 3.57] (Eterna round: R96, puzzle: Same State NG 3)",0.0672,0.084,0.0691,,,
"GCGAGCGUACUUGCAGACAUGAGGAUCACCCAUGUAACUGGACAGGAUAUGGUACCGUUUCGGUACCAGAAGGGUUUAUCAUGU [JL SSNG3 3.55] (Eterna round: R96, puzzle: Same State NG 3)",0.167,0.14,0.193,,,
"GCGAGCGUACUUGCUACAUGAGGAUCACCCAUGUUUGAUGGACAGGAUAUGGUACCGUUUCGGUACCAGAAGGGUUCACAUGUA [JL SSNG3 3.79] (Eterna round: R96, puzzle: Same State NG 3)",0.0714,0.268,0.214,,,
"GCGGAACGGUGUGACAUGAGGAUCACCCAUGUAACCUCAUGUAAGGAUAUCGGGAAGAAGAAAACCGAGAAGGUACGGUGACGC [AK SSNG3-V2-29] (Eterna round: R96, puzzle: Same State NG 3)",0.399,0.152,0.706,,,
"GCGGAAUGGUGUGACAUGAGGAUCACCCAUGUAACCUCAUGUAAGGAUAUCGGGAAGAAGAAAACCGAGAAGGUACGGUGACGC [AK SSNG3-V2-28] (Eterna round: R96, puzzle: Same State NG 3)",0.197,0.145,0.165,,,
"GCGGAGAGGUAAGGAUAUUCAUGGCAUAGACAUGAGGAUCACCCAUGUAGGAGACGAAUUAGAAGGAAGAAGGUACCGGGACGC [AK SSNG2-V2-18.1] (Eterna round: R96, puzzle: Same State NG 2)",0.158,0.113,0.197,,,
GCUACAUCGAGCGAGGAUAUGCGGCGUAUAACAUGAGGAUCACCCAUGUCCUUCGAAUCGAGUACGCAGAAGGCGCUACGGUAGC [Big Heel] (puzzle: Same State 2),,,,0.0776,0.277,0.551
"GCUACAUGAGGAUCACCCAUGUGUGUGUGGGAGUGAGUGGCUUAGGAUAUCUAUGAUUUUAGUUGAGAGAAGGAGGAUUGCUGU [SS-NG3-LRO09] (Eterna round: R96, puzzle: Same State NG 3)",0.471,0.317,0.336,,,
"GCUACCAUUGAAGCCAACAUGAGGAUCACCCAUGUAUGUUGGCAGGAUAUCGAUUGCAAAGCGAUCGAGAAGGGCUAAGGUAGC [Mat - Same State NG 3 - JL Mod - D86] (Eterna round: R96, puzzle: Same State NG 3)",0.0922,0.0628,0.117,,,
"GCUAGAAUAAAUGCUAACAUGAGGAUCACCCAUGUAUGUUGGCAGGAUAUCGUUUGCAAAGCAAACGAGAAGGGCCAUACUAGC [Mat - Same State NG 3 - JL Mod - D26] (Eterna round: R96, puzzle: Same State NG 3)",0.0231,0.0263,0.0381,,,
"GCUAGAAUUAAAGCCAACAUGAGGAUCACCCAUGUAUGUUGGUAGGAUAUCGUUUGCAAAGCAAACGAGAAGGGCUAAUCUAGC [Mat - Same State NG 3 - JL Mod - D64] (Eterna round: R96, puzzle: Same State NG 3)",0.087,0.0482,0.0802,,,
"GCUAGGAAUUAAGCCAACAUGAGGAUCACCCAUGUAUGUUGGUAGGAUAUCGUUUGCAAAGCAAACGAGAAGGGCUAACCUAGC [Mat - Same State NG 3 - JL Mod - D72] (Eterna round: R96, puzzle: Same State NG 3)",0.0809,0.0558,0.0853,,,
"GCUAGUAAAAUUGUCAACAUGAGGAUCACCCAUGUAUGUUGGCAGGAUAUCGUUUGCAAAGCAAACGAGAAGGGCUAAACUAGC [Mat - Same State NG 3 - JL Mod - D12] (Eterna round: R96, puzzle: Same State NG 3)",0.0582,0.186,0.171,,,
"GCUCGACGUGUUGUCUACAUGAGGAUCACCCAUGUAGGUGCGGAGGAUAUCUACGUGCUUUAUGUAGAGAAGGUCGUGUCGAGC [SameState NG3 #87] (Eterna round: R96, puzzle: Same State NG 3)",0.0324,0.0553,0.0664,,,
"GCUCGAUGAAUGUCCUACAUGAGGAUCACCCAUGUUCGUGGGCAGGAUAUUUACAUGCAGAGUGUAGAGAAGGGCCCAUCGAGC [SameState NG3 #63] (Eterna round: R96, puzzle: Same State NG 3)",0.0434,0.0637,0.0851,,,
"GCUCGAUGUGCUGUUUACAUGAGGAUCACCCAUGUAGAUGCGGAGGAUAUCUACGUGCUUUAUGUAGAGAAGGCCGUAUCGAGC [SameState NG3 #82] (Eterna round: R96, puzzle: Same State NG 3)",0.015,0.0254,0.0351,,,
